The record followed here is patent US20250129166A1.

The target in this test is full length human PSGL-1 (SEQ ID NO: 3) expressed on heparan sulfate-mutant CHO cells (human) (UniProt Q14242). Nature of the test: blocking of VISTA-Fc binding to CHO-PSGL-1 cells (the blocked ligand is VISTA-Fc); cells pre-incubated with antibody and read by flow cytometry or HTRF. On the technique in general: Flow cytometry measures light scatter and fluorescence of single cells or particles in a stream.
full length human PSGL-1 (SEQ ID NO: 3) expressed on heparan sulfate-mutant CHO cells (human), sequence (Q14242 42-412 limits assumed, change not shown): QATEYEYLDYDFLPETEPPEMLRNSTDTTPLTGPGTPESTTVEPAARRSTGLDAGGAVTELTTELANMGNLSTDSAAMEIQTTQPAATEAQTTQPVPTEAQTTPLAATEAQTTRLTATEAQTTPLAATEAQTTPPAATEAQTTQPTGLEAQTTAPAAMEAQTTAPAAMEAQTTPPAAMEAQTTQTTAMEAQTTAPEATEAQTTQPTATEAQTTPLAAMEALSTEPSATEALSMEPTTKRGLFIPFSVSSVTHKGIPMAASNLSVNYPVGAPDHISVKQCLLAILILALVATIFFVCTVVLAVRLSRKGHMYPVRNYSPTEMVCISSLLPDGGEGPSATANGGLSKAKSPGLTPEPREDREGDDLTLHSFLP

In turn, “anti-PSGL-1 antibody KPL-1 (BD Biosciences or Biolegend)” displayed an IC50 (read off the curve) of 0.06 µg/mL.
